The text below walks through data of patent US20250382362A1 (UNIVERSIT TSKLINIKUM REGENSBURG, published 2025).

In one experiment the target is T1, human IL3 (human, UniProt P08700 20-152).
T1 sequence: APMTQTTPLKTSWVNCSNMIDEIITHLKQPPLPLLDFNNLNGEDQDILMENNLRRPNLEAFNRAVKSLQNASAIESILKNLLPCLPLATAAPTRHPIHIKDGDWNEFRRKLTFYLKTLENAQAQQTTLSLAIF
The experiment is described as follows: cell-based or functional assay.

Experiment [1] deals with T2, IL3 peptide, amino acids 22-48 (mature) / 41-67 (native) (human).
T2 construct: Linear peptide derived from human IL3, coated on the plate
T2 peptide: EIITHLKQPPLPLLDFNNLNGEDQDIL
Kind of experiment: ELISA on coated linear IL3 peptide. The protocol:
(§1) Peptides were coated overnight in PBS in Nunclon 96 Flat Bottom Transparent Polystyrol plates (Thermo Fisher) at a concentration of 10 μg/ml (60 μl/well). Then […] were washed three times with wash buffer (0.05% Tween 20 in PBS), followed by blocking for 2 hours at room temperature with 1% BSA/PBS. After another washing step with wash buffer, antibody GRT002-H16L2 was added (60 μl of a 10 μg/ml solution in 1% BSA/PBS) and incubated for 1 hour at room temperature. 1% BSA/PBS served as a control. After another washing step, GRT002-H16L2 was incubated with a secondary antibody (HRP-conjugated AffinePure fragment goat anti-human IgG; Jackson Immuno Research) for 1 hour at room temperature. After a final washing step, 100 μl of ABTS (2,2′-azino-bis(3-ethylbenzothiazoline-6-sulfonic acid) was added to each well. Absorption was measured in a infinite 200Pro reader (Tecan) at 405 nm.
In general terms: In an ELISA, binding on a coated surface is turned into a signal by an enzyme label.

The target of experiment [2] is T3, IL3 peptide, amino acids 28-48 (mature) / 47-67 (native) (human).
T3 construct: Peptide in which amino acids 22-27 are deleted
T3 peptide: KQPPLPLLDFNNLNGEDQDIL
Kind of experiment: ELISA on coated linear IL3 peptide. The protocol:
as §1

For experiment [3], the target named is T4, IL3 peptide, amino acids 26-48 (mature) / 45-67 (native) (human).
T4 construct: Peptide in which amino acids 22-25 are deleted
T4 peptide: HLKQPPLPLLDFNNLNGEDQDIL
The experiment is described as follows: ELISA on coated linear IL3 peptide. The protocol:
as §1

B1: GRT002-H16L2 (antibody, human IgG1, kappa, V domains shown)
VH: QVQLVQSGAEVKKPGASVKVSCKGSGFTFTDYALHWVRQAPGQRLEWMGLISTYYGDTTYNQRFKGRVTMTVDKSTSTAYMELSSLRSEDTAVYYCVITTVAGTDAMDYWGQGTLVTVSS
VL: DIQMTQSPSSLSASVGDRVTITCHASQNINVWLSWYQQKPGKAPKLLIYKASNLHTGVPSRFSGSGSGTDFTFTISSLQPEDIATYYCQQGYSYPYTFGGGTKLEIKR
notes: IgG1 of the G1m3 (heavy chain) and KM3 (light chain) allotype, lacks the C-terminal lysine; also called HC16 × LC2; humanized derivative of antibody P8C11
For the molecule B1, the “Inhibitory activity (block of IL-3 induced downregulation of CD131 on primary human basophils; chimeric P8C11 normalized to 100%)” value with human IL3 was 100%. The binding result in experiment [1], in experiment [2] and in experiment [3] was “binds” each time.
